According to publication PMC9481612, “Molecular architecture of the augmin complex” (Nature Communications, 2022):

T1: HAUS5 (human, UniProt O94927 1-633)
T1 construct: HAUS5, human; 633; also called H5; source: High5 insect cells, co-infected with baculoviruses; purified as part of the augmin octamer (StrepII-Trap, Superose 6)
T1 sequence (looked up): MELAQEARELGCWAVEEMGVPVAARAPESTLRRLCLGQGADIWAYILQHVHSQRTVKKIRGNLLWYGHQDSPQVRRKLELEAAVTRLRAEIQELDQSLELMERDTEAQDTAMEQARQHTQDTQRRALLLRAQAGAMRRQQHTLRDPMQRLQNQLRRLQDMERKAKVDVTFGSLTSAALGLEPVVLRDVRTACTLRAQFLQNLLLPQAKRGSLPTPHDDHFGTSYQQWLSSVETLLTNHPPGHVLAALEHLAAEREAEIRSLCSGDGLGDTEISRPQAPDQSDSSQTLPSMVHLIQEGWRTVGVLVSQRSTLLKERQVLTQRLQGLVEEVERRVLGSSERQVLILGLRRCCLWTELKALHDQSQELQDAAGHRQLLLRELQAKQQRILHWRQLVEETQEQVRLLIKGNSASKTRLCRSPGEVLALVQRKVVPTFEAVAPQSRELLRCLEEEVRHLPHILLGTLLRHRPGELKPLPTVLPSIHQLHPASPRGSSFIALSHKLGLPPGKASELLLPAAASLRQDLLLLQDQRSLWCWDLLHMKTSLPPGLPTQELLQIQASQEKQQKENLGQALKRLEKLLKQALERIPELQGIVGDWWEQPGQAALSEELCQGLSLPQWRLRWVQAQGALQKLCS

T2: HAUS6 N-terminal region (a.a. 1–432) (human, UniProt Q7Z4H7 1-432)
T2 construct: HAUS6, human, N-terminal region a.a; 1-432 (C-terminal region H6C, a.a. 433-955, deleted); also called H6N; H6 in augmin^ΔH6C; source: High5 insect cells, co-infected with baculoviruses; purified as part of the augmin^ΔH6C octamer (StrepII-Trap, Superose 6)
T2 sequence (looked up): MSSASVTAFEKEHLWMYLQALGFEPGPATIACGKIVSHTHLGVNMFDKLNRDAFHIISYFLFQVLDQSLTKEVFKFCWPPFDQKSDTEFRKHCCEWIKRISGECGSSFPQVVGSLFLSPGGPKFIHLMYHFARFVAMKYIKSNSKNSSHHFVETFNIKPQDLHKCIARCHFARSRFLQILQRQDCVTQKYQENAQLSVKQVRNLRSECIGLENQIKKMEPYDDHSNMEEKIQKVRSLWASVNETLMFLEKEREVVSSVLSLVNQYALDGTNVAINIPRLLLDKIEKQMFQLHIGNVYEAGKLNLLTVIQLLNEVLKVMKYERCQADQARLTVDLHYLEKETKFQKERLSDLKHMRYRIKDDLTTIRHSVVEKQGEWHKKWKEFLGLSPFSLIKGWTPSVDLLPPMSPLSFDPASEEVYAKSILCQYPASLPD


Legend:
HAUS5 = molecular target: T1, HAUS5; assay: cross-linking; purified augmin^ΔH6C with DSSO at 250:1, 500:1, 750:1 and 1000:1 molar ratio, 1 h on ice; trypsin in gel or in solution, LC-MS/MS, MetaMorpheus, 1% FDR; conditions: both partners purified
[1] = molecular target: T2, HAUS6 N-terminal region (a.a. 1–432); assay: as above; conditions: both partners purified

| Binder | binding result (HAUS5) | binding result [1] |
| --- | --- | --- |
| HAUS3 (natural protein, human, UniProt Q68CZ6 1-603, looked up, HAUS3, human; 603; also called H3; source: High5 insect cells, co-infected with baculoviruses; purified as part of the augmin octamer (StrepII-Trap, Superose 6)) MSCGNEFVETLKKIGYPKADNLNGEDFDWLFEGVEDESFLKWFCGNVNEQNVLSERELEAFSILQKSGKPILEGAALDEALKTCKTSDLKTPRLDDKELEKLEDEVQTLLKLKNLKIQRRNKCQLMASVTSHKSLRLNAKEEEATKKLKQSQGILNAMITKISNELQALTDEVTQLMMFFRHSNLGQGTNPLVFLSQFSLEKYLSQEEQSTAALTLYTKKQFFQGIHEVVESSNEDNFQLLDIQTPSICDNQEILEERRLEMARLQLAYICAQHQLIHLKASNSSMKSSIKWAEESLHSLTSKAVDKENLDAKISSLTSEIMKLEKEVTQIKDRSLPAVVRENAQLLNMPVVKGDFDLQIAKQDYYTARQELVLNQLIKQKASFELLQLSYEIELRKHRDIYRQLENLVQELSQSNMMLYKQLEMLTDPSVSQQINPRNTIDTKDYSTHRLYQVLEGENKKKELFLTHGNLEEVAEKLKQNISLVQDQLAVSAQEHSFFLSKRNKDVDMLCDTLYQGGNQLLLSDQELTEQFHKVESQLNKLNHLLTDILADVKTKRKTLANNKLHQMEREFYVYFLKDEDYLKDIVENLETQSKIKAVSLED | binds | – |
| HAUS8 (natural protein, human, UniProt Q9BT25 1-410, looked up, HAUS8, human; 410; a.a; 1-138 and 340-410 are not seen in the cryo-EM map; also called H8; source: High5 insect cells, co-infected with baculoviruses; purified as part of the augmin octamer (StrepII-Trap, Superose 6)) MADSSGRGAGKPATGPTNSSSAKKKDKRVQGGRVIESRYLQYEKKTTQKAPAGDGSQTRGKMSEGGRKSSLLQKSKADSSGVGKGDLQSTLLEGHGTAPPDLDLSAINDKSIVKKTPQLAKTISKKPESTSFSAPRKKSPDLSEAMEMMESQTLLLTLLSVKMENNLAEFERRAEKNLLIMCKEKEKLQKKAHELKRRLLLSQRKRELADVLDAQIEMLSPFEAVATRFKEQYRTFATALDTTRHELPVRSIHLEGDGQQLLDALQHELVTTQRLLGELDVGDSEENVQVLDLLSELKDVTAKKDLELRRSFAQVLELSAEASKEAALANQEVWEETQGMAPPSRWYFNQDSACRESGGAPKNTPLSEDDNPGASSAPAQATFISPSEDFSSSSQAEVPPSLSRSGRDLS | – | binds |
